The values below come from PMC4471362.

The test system of series [1] is Nc1ncnc2c1ncn2[C@@H]1O[C@H](COP(=O)(O)OP(=O)(O)OP(=O)(O)O)[C@@H](O)[C@H]1O. The experiment in a line: purified protein. As to conditions: basal ATPase, buffer presumably as for PfHsp70-z (pH 7.5, MgCl2), kcat unit as printed.
The target of series [2] is Plasmodium falciparum Hsp70-z (PfHsp70-z), recombinant (His)6-PfHsp70-z (Plasmodium falciparum). The series can be described thus: SPR; ProteOn XPR36, GLC chip, ligand immobilised by amine coupling (PfHsp70-z, 187 RU); analyte 125-2000 nM at 50 ul/min; 25°C; PBS-Tween with 20 mM EDTA, pH 7.4; no nucleotide; Langmuir model. On the technique in general: In SPR one partner is held on a chip, and binding of the other changes the refractive index at the surface.

For series [3] the target is unchanged. The series can be described thus: SPR; ProteOn XPR36, GLC chip, ligand immobilised by amine coupling (PfHsp70-z, 187 RU); analyte 125-2000 nM at 50 ul/min; 25°C; PBS-Tween with 20 mM EDTA, pH 7.4; with 5 mM ADP; Langmuir model.
Series [4] shares this target. The experiment in a line: SPR; ProteOn XPR36, GLC chip, ligand immobilised by amine coupling (PfHsp70-z, 187 RU); analyte 125-2000 nM at 50 ul/min; 25°C; PBS-Tween with 20 mM EDTA, pH 7.4; with 5 mM ATP; Langmuir model.
The target of series [5] is hHsp70 (Homo sapiens) (UniProt P0DMV8). The experiment in a line: SPR. As to conditions: cited from earlier work.

hHsp70, sequence (P0DMV8 2-641): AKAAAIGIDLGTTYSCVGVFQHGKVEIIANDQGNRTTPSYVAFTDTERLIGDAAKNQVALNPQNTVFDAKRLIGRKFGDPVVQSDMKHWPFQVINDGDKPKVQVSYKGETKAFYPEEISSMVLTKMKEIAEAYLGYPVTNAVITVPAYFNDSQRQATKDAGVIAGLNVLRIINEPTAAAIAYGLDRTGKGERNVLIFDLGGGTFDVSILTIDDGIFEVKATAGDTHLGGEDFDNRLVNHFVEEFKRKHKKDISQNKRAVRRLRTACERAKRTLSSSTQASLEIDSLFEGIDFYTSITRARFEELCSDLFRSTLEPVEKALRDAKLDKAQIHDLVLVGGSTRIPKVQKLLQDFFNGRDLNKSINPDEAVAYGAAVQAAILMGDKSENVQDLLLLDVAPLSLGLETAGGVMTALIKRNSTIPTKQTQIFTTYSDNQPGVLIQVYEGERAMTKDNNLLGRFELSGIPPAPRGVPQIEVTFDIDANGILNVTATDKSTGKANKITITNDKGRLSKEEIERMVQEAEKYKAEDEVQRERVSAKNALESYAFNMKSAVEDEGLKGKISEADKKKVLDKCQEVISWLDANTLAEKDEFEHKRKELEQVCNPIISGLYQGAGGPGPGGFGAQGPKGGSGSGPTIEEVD

As a reminder, the Vmax is the top rate of the reaction or transport when substrate is in excess. As to PfHsp70-1 (Plasmodium falciparum 3D7), in series [1], the Km is listed as 428 (+/- 5) μM and the Vmax was determined as 0.0246 µmol/min/mg.

As a reminder, the Kd is the concentration at which binding is half-saturated. For orientation: koff means the rate constant with which the complex falls apart. Broadly, the kon is a measure of how fast the partners come together. As to “Plasmodium falciparum Hsp70-z (PfHsp70-z), recombinant (His)6-PfHsp70-z (natural protein)”, the results for the Kd in series [2], in series [3] and in series [4] were 7.97 nM, 11.5 nM and 11.3 nM, respectively. Also, the koff in series [2] turned out to be 9.54e-05 s⁻¹; in series [3], 7.6e-05 s⁻¹; in series [4], 3.2e-05 s⁻¹. Also, the results for the kon in series [2], in series [3] and in series [4] were 12000 M⁻¹ s⁻¹, 6620 M⁻¹ s⁻¹ and 2840 M⁻¹ s⁻¹, respectively.

On to hHsp70 (from UniProt P0DMV8), for which, in series [5], the Kd is 4.5 nM.
